Measurements: article PMC7060721

Molecular target: ENLARGED VESSEL ELEMENT (EVE) homolog of Physcomitrella patens (Physcomitrella patens)
Test: SEC-MALS

- stoichiometry N: 5
Sequence: ENLARGED VESSEL ELEMENT (EVE) homolog of Physcomitrella patens (natural protein)
